Results on 13 molecules are retold here after patent US20260125454A1 (SHANGHAI JUNSHI BIOSCIENCES, published 2026).

The target of assay [1] is CGRP antigen. Briefly: cell-based or functional assay.
The target in assay [2] is T1, Biotin-huCGRPaSA (human, not fully specified; biotin (position not given)).
T1 construct: exact construct ('aSA') not explained; also called Biotin CGRPaSA; full-length (1-37) CGRP
T1 peptide: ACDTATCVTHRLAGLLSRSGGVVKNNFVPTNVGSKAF
Briefly: ELISA, transfection supernatant, biotin-CGRP on streptavidin. As to the method: Streptavidin was diluted to 0.5 μg/mL by using PBS (Hyclone) and added into a plate at 100 μL/well. The plate was incubated in a thermostat incubator at 37° C. for 90 min and then washed. 2% BSA was added to the plate at 200 μL/well, and the plate was incubated in the thermostat incubator at 37° C. for 90 min and washed. Biotin-huCGRPaSA was diluted to 2.0 μg/mL with 2% BSA and added into the plate at 100 μL/well, and the plate was incubated in the thermostat incubator at 37° C. for 60 min. The reference antibody (47-RM) was diluted to 2500 ng/ml with a diluent (2% BSA) and serially 4-fold diluted to 0.15 ng/mL, and the chimeric antibodies were diluted with a cell supernatant stock solution. All the chimeric antibody solutions and the reference antibody solution were added into plates at 80 μL/well, and the plates were incubated in a thermostat incubator at 37° C. for 60 min and washed. An HRP-conjugated mouse anti-human antibody IgG4 (manufacturer: Southern Biotech, Cat. No. 9200-05; Fc specificity) was diluted 5000-fold with 2% BSA and added into the plates at 100 μL/well, and the plates were incubated in the thermostat incubator at 37° C. for 60 min and washed. 0.1 mg/mL chromogenic reagent TMB was carefully added at 100 μL/well to avoid bubbles, and the system was incubated at 37° C. for 10 min away from light for chromogenic reaction. Finally, a 2 M hydrochloric acid solution was added at 100 μL/well to stop the reaction while avoiding bubbles, and the plates were read on a microplate reader within 10 min (the detection wavelength was 450 nm; the reference wavelength was 620 nm).

The target of assay [3] is T1, Biotin-huCGRPaSA. Briefly: ELISA, purified antibody; relative to reference 47-RM-20190815. As to the method:
Streptavidin was diluted to […] by using PBS (Hyclone) and added into a plate at 100 μL/well. The plate was incubated in a thermostat incubator at 37° C. for 90 min and then washed. 2% BSA was added to the plate at 200 μL/well, and the plate was incubated in the thermostat incubator at 37° C. for 90 min and washed. Biotin-huCGRPaSA was diluted to 2.0 μg/mL with 2% BSA and added into the plate at 100 μL/well, and the plate was incubated in the thermostat incubator at 37° C. for 60 min. The chimeric antibodies in Table 3 and reference antibody (47-RM-20190815) were diluted to 1000 ng/ml with a diluent (2% BSA) and serially 10-fold diluted to 1 ng/mL. All the chimeric antibody solutions and the reference antibody solution were added into plates at 100 μL/well, and the plates were incubated in a thermostat incubator at 37° C. for 60 min and washed. An HRP-conjugated mouse anti-human antibody IgG4 (manufacturer: Southern Biotech, Cat. No. 9200-05; Fc specificity) was diluted 5000-fold with 2% BSA and added into the plates at 100 μL/well, and the plates were incubated in the thermostat incubator at 37° C. for 60 min and washed. 0.1 mg/mL chromogenic reagent TMB was carefully added at 100 μL/well to avoid bubbles, and the system was incubated at 37° C. for 5 min away from light for chromogenic reaction. Finally, a 2 M hydrochloric acid solution was added at 100 μL/well to stop the reaction while avoiding bubbles, and the plates were read on a microplate reader within 10 min (the detection wavelength was 450 nm; the reference wavelength was 620 nm). EC₅₀ was fit by using a four-parameter logistic regression (4PL) model.

Assay [4] addresses CGRP antigen. Briefly: cell-based or functional assay. This is another data set of the same source.

Read-outs that look alike come from different tables or passages of the source.

B1: C125 (antibody, V domains shown)
VH: EVQLQQSGPELVKPGASVKISCKASGYTFTDYNMHWVKQSHGKSLEWIGNIYPYNGGTVYNQKFNNKATLTVHTSSSTAYMDLRSLTSDDSAVYYCAREGLGGYWGQGTTLTVSS
VL: DVVLTQSPTSLAVSLGQRATISCQASQNIDGNTYMNWYQQKPGQPPKVLIYSIFNLESGIPARFSGSGSGTHFTLTIHPVEEEDAATYYCQQSNDYPYTFGGGTKLEIK
notes: 2B8-HC1 + 2B8-LC2; chimeric, human constant regions
As to B1, the “Relative binding activity (%) vs Ref(Teva)” value (“Relative binding activity (%)” for short) in the assay with CGRP antigen [1] came to 76.4%. This molecule had an OD value with Biotin-huCGRPaSA [2] of 3.08 OD. For the same molecule, in the assay with Biotin-huCGRPaSA [3], the “Relative activity (%)” value worked out at 62.9%.

B2: C258 (antibody, V domains shown)
VH: EVQLQQSGPELVKPGASVKISCKTSGYTFTDYNMHWVKQSHGKSLEWIGYISPYNGGTAYNQKFKFKSTLTVDTSSSTAYMELRSLTSEDSAVYYCAREGLGGYWGQGTTLTVSS
VL: DIVLTQSPASLAVSLGQRATISCKASQNIDFDGYAYMNWYQHKPGQPPRVLIYSVFNLESGIPARFSGSGSGTDFTLNIHPVEEEDAATYYCQQSHEVPYTFGGGTNLEIK
notes: 3E5-HC + 1F5-LC1; chimeric, human constant regions
Regarding B2, in the assay with CGRP antigen [4], the “Relative binding activity (%)” value was determined as 117%. In the assay with Biotin-huCGRPaSA [2], this molecule had an OD value of 3.12 OD. For the same molecule, in the assay with Biotin-huCGRPaSA [3], the “Relative activity (%)” value was 99.8%.

B3: C350 (antibody, V domains shown)
VH: EVQLQQSGPELVQPGASVKISCKASGYTFTDYNMHWVKQSHGESLEWIGYIYPYNGHTVYNQKFRNKATMTVDSSSSTAYMDLRSLTSEDSAVYYCAKEGLGGYWGQGTTLTVSS
VL: DIVLTQSPASLAVSLGQRATISCKASQNIDFDGYAYMNWYQHKPGQPPRVLIYSVFNLESGIPARFSGSGSGTDFTLNIHPVEEEDAATYYCQQSHEVPYTFGGGTNLEIK
notes: 3H10-HC + 1F5-LC1; chimeric, human constant regions
B3 showed an OD value in the assay with Biotin-huCGRPaSA [2] of 3 OD. Moreover, in the assay with Biotin-huCGRPaSA [3], the “Relative activity (%)” value stood at 108%.

B4: C276 (antibody, V domains shown)
VH: EVQLQQSGPELVKPGASVKISCKTSGYTFTDYNMHWVKQSHGKSLEWIGYISPYNGGTAYNQKFKFKSTLTVDTSSSTAYMELRSLTSEDSAVYYCAREGLGGYWGQGTTLTVSS
VL: DIVLTQSPDSLAVSLGQRATISCKASQNIDYGGYSYMNWYQQKPGQPPKVLIYSVFNLESGIPARFSGSGSGTDFTLTIHPVEEEDAATYYCQQSNEAPYTFGGGTKLEIR
notes: 3E5-HC + 3H10-LC2; chimeric, human constant regions
The molecule B4 returned an OD value in the assay with Biotin-huCGRPaSA [2] of 3.01 OD. Besides, the “Relative activity (%)” value with Biotin-huCGRPaSA [3] is 84.1%.

B5: C138 (antibody, V domains shown)
VH: EVQLQQSGPELVKPGASVKISCKASGYTFTDYNMHWVKQSHGKSLEWIGNIYPYNGGTVYNQKFNNKATLTVHTSSSTAYMDLRSLTSDDSAVYYCAREGLGGYWGQGTTLTVSS
VL: DIVLTQSPDSLAVSLGQRATISCKASQNIDYGGYSYMNWYQQKPGQPPKVLIYSVFNLESGIPARFSGSGSGTDFTLTIHPVEEEDAATYYCQQSNEAPYTFGGGTKLEIR
notes: 2B8-HC1 + 3H10-LC2; chimeric, human constant regions
On to B5, for which, in the assay with Biotin-huCGRPaSA [2], the OD value came out at 3.06 OD. Moreover, the “Relative activity (%)” value in the assay with Biotin-huCGRPaSA [3] worked out at 136%.

B6: C347 (antibody, V domains shown)
VH: EVQLQQSGPELVQPGASVKISCKASGYTFTDYNMHWVKQSHGESLEWIGYIYPYNGHTVYNQKFRNKATMTVDSSSSTAYMDLRSLTSEDSAVYYCAKEGLGGYWGQGTTLTVSS
VL: DIVLTQSPASLAVSLGQRATISCKASQNIDYDGYAYLNWYQQKPGQPPKVLIYSVFNLESGIPARFSGSGSGTDFTLNIHPVEEEDAATYYCQQSNEFPYTFGGGTKLEVK
notes: 3H10-HC + 1A2-LC2; chimeric, human constant regions
As to B6, in the assay with CGRP antigen [4], the “Relative binding activity (%)” value is 87.6%. Also, in the assay with Biotin-huCGRPaSA [2], the OD value was 3.01 OD. In the assay with Biotin-huCGRPaSA [3], the “Relative activity (%)” value worked out at 91.4%.

B7: C120 (antibody, V domains shown)
VH: EVQLQQSGPELVKPGASVKISCKASGYTFTDYNMHWVKQSHGKSLEWIGNIYPYNGGTVYNQKFNNKATLTVHTSSSTAYMDLRSLTSDDSAVYYCAREGLGGYWGQGTTLTVSS
VL: DIVLTQSPASLAVSLGQRATISCKASQNIDFDGYAYMNWYQHKPGQPPRVLIYSVFNLESGIPARFSGSGSGTDFTLNIHPVEEEDAATYYCQQSHEVPYTFGGGTNLEIK
notes: 2B8-HC1 + 1F5-LC1; chimeric, human constant regions
Regarding B7, the “Relative binding activity (%)” value with CGRP antigen [4] was 50.3%. In the assay with Biotin-huCGRPaSA [2], this molecule registered an OD value of 3.09 OD. Moreover, in the assay with Biotin-huCGRPaSA [3], the “Relative activity (%)” value was found to be 30.6%.

B8: C255 (antibody, V domains shown)
VH: EVQLQQSGPELVKPGASVKISCKTSGYTFTDYNMHWVKQSHGKSLEWIGYISPYNGGTAYNQKFKFKSTLTVDTSSSTAYMELRSLTSEDSAVYYCAREGLGGYWGQGTTLTVSS
VL: DIVLTQSPASLAVSLGQRATISCKASQNIDYDGYAYLNWYQQKPGQPPKVLIYSVFNLESGIPARFSGSGSGTDFTLNIHPVEEEDAATYYCQQSNEFPYTFGGGTKLEVK
notes: 3E5-HC + 1A2-LC2; chimeric, human constant regions
As to B8, the “Relative binding activity (%)” value with CGRP antigen [4] amounted to 74.9%. Also, in the assay with Biotin-huCGRPaSA [2], the OD value came to 3.11 OD. The “Relative activity (%)” value in the assay with Biotin-huCGRPaSA [3] was determined as 108%.

B9: C48 (antibody, V domains shown)
VH: EVQLQQSGPEVVKPGASVRISCQASGYTFTDYNMHWVKQSHGKSLEWIGYIFPYNGVAVYNRKFRSKATLIIDKSSTTAYMELRSLTSEDSAVYYCAREGLGGYWGQGTTLTVSS
VL: DIVLTQSPASLAVSLGQRATISCKASQNIDYDGYAYLNWYQQKPGQPPKVLIYSVFNLESGIPARFSGSGSGTDFTLNIHPVEEEDAATYYCQQSNEFPYTFGGGTKLEVK
notes: 1B2-HC + 1A2-LC2; chimeric, human constant regions
B9: in the assay with CGRP antigen [1], the “Relative binding activity (%)” value stood at 93%. Besides, the OD value in the assay with Biotin-huCGRPaSA [2] is 3.12 OD. In addition, the “Relative activity (%)” value with Biotin-huCGRPaSA [3] came to 60.4%.

B10: C97 (antibody, V domains shown)
VH: EVQLQQSGPELVKPGASVKISCKASGYTFTDYNMHWVKQSHGKSLEWIGYVYPYNGGSAYNQKFKSKATLTVDTSSSIAYMDLHSLTSEDSAVYYCAREGLGGYWGQGTTLAVSS
VL: DIVLTQSPASLAVSLGQRATISCKASQNIDFDGYAYMNWYQHKPGQPPRVLIYSVFNLESGIPARFSGSGSGTDFTLNIHPVEEEDAATYYCQQSHEVPYTFGGGTNLEIK
notes: 2A2-HC + 1F5-LC1; chimeric, human constant regions
As for B10, the “Relative binding activity (%)” value with CGRP antigen [1] was determined as 98.4%. Further, the OD value with Biotin-huCGRPaSA [2] was determined as 3.03 OD. In the assay with Biotin-huCGRPaSA [3], the “Relative activity (%)” value turned out to be 41.9%.

B11: C85 (antibody, V domains shown)
VH: EVQLQQSGPELVKPGASVKISCKTSGYTFIDFNMHWVKQSHGKSLEWIGYIYPYNGDVVYNQNFTNKATLTVDSSSSTAYMELRRVTSEDSAIYYCAREGLGGYWGQGTTLTVSS
VL: DIVLTQSPASLAVSLGQRATISCKASQNIDYDGYTYLNWYQQKPGQPPKVLIYSIFNLESGIPARFSGSGSGTDFTLNIHPVEEEDAATYYCQQSNEVPYTFGGGTKLEIK
notes: 1F5-HC + 3E5-LC; chimeric, human constant regions
Consider B11, for which the “Relative binding activity (%)” value with CGRP antigen [4] was 111%. For the same molecule, the OD value with Biotin-huCGRPaSA [2] was 3.11 OD. Moreover, the “Relative activity (%)” value with Biotin-huCGRPaSA [3] came out at 56.7%.

B12: C69 (antibody, V domains shown)
VH: EVQLQQSGPEVVKPGASVRISCQASGYTFTDYNMHWVKQSHGKSLEWIGYIFPYNGVAVYNRKFRSKATLIIDKSSTTAYMELRSLTSEDSAVYYCAREGLGGYWGQGTTLTVSS
VL: DIVLTQSPDSLAVSLGQRATISCKASQNIDYGGYSYMNWYQQKPGQPPKVLIYSVFNLESGIPARFSGSGSGTDFTLTIHPVEEEDAATYYCQQSNEAPYTFGGGTKLEIR
notes: 1B2-HC + 3H10-LC2; chimeric, human constant regions
B12: the “Relative binding activity (%)” value in the assay with CGRP antigen [1] came out at 42.2%. The molecule also returned an OD value in the assay with Biotin-huCGRPaSA [2] of 3.07 OD. The “Relative activity (%)” value in the assay with Biotin-huCGRPaSA [3] is 221%.

B13: C92 (antibody, V domains shown)
VH: EVQLQQSGPELVKPGASVKISCKTSGYTFIDFNMHWVKQSHGKSLEWIGYIYPYNGDVVYNQNFTNKATLTVDSSSSTAYMELRRVTSEDSAIYYCAREGLGGYWGQGTTLTVSS
VL: DIVLTQSPDSLAVSLGQRATISCKASQNIDYGGYSYMNWYQQKPGQPPKVLIYSVFNLESGIPARFSGSGSGTDFTLTIHPVEEEDAATYYCQQSNEAPYTFGGGTKLEIR
notes: 1F5-HC + 3H10-LC2; chimeric, human constant regions
As to B13, in the assay with CGRP antigen [4], the “Relative binding activity (%)” value was 108%. Also, the OD value with Biotin-huCGRPaSA [2] worked out at 3.09 OD. In the assay with Biotin-huCGRPaSA [3], the “Relative activity (%)” value was found to be 68.5%.
